In US20250361299A1 (ZHEJIANG SHIMAI PHARMACEUTICAL, published 2025):

Biological target: T1, Recombinant human EGFR (human, UniProt P00533 25-645)
T1 construct: Bought protein coated on ELISA plates (100 ng per well); also called human antigen EGFR
Assay: ELISA on coated human EGFR, antibody not treated with uPA
Experimental: To determine the binding affinity of proBiTEs to CD3 and EGFR, ELISA was performed according to standard protocols. Briefly, human antigen CD3 and EGFR were coated on Corning EIA/RIA high-binding 96-well plates (Corning Inc.) at 100 ng per well overnight at 4° C. and blocked with 3% nonfat milk in PBS (pH7.4). For cleavage with urokinase (uPA), 30 μg antibodies were mixed with or without 0.3 μg recombinant human uPA (50 μg/mL) (Sino Biological) in PBS (pH7.4) and incubated at room temperature for 4 hour. Then the mixture with or without uPA was diluted in a fivefold gradient and incubated at room temperature for 2 h. The plates were washed with PBS containing 1% nonfat milk. Bound antibodies were detected by HRP-conjugated streptavidin (Sigma). The assay was developed at room temperature with TMB substrate (Solarbio) and monitored at 450 nm with a microplate reader. The half-maximal binding (EC₅₀) was calculated by fitting the data to the Langmuir adsorption isotherm.

B1: 1.6.1M-Pa proBiTE (bispecific antibody)
heavy: QDGNEEMGGGSQDGNEEMGGIGGGSGGGGSGLSGRSDNHGGGGSEVQLVESGGGLVQPGGSLRLSCAASGFTFNTYAMNWVRQAPGKGLEWVARIRSKYNNYATYYADSVKGRFTISRDDSKNTLYLQMNSLRAEDTAVYYCARHGNFGSSYVSYFAYWGQGTTVTVSSASTKGPSVFPLAPSSKSTSGGTAALGCLVKDYFPEPVTVSWNSGALTSGVHTFPAVLQSSGLYSLSSVVTVPSSSLGTQTYICNVNHKPSNTKVDKKVEPKSCPPCPAPEAAGAPSVFLFPPKPKDTLMISRTPEVTCVVVDVSHEDPEVKFNWYVDGVEVHNAKTKPREEQYNSTYRVVSVLTVLHQDWLNGKEYKCKVSNKALPAPIEKTISKAKGQPREPQVYTLPPSRDELTKNQVSLLCLVKGFYPSDIAVEWESNGQPENNYKTTPPVLDSDGSFFLHSKLTVDKSRWQQGNVFSCSVMHEALHNHYTQKSLSLSPGK
light: QVQLQESGPGLVKPSETLSLTCTVSGGSVSSGDYYWTWIRQSPGKGLEWIGHIYYSGNTNYNPSLKSRLTISIDTSKTQFSLKLSSVTAADTAIYYCVRDRVTGAFDIWGQGTMVTVSSGGGGSGGGGSGGGGSGGGGSDIQMTQSPSSLSASVGDRVTITCQASQDISNYLNWYQQKPGKAPKLLIYDASNLETGVPSRFSGSGSGTDFTFTISSLQPEDIATYFCQHFDHLPLAFGGGTKVEIKGGGGSGGGGSGGGGSGGGGSEIVVTQSPATLSVSPGERATLSCRSSTGAVTTSNYANWVQQKPGQAPRGLIGGANKRAPGVPARFSGSLSGDEATLTISSLQSEDFAVYYCALWYSNLWVFGQGTKLEIKRTVAAPSVFIFPPSDEQLKSGTASVVCLLNNFYPREAKVQWKVDNALQSGNSQESVTEQDSKDSTYSLSSTLTLSKADYEKHKVYACEVTHQGLSSPVTKSFNRGECPPCPAPEAAGAPSVFLFPPKPKDTLMISRTPEVTCVVVDVSHEDPEVKFNWYVDGVEVHNAKTKPREEQYNSTYRVVSVLTVLHQDWLNGKEYKCKVSNKALPAPIEKTISKAKGQPREPQVYTLPPSRDELTKNQVSLLCLVKGFYPSDIAVEWESNGQPENNYKTTPPVLDSDGSFFLHSKLTVDKSRWQQGNVFSCSVMHEALHNHYTQKSLSLSPGK
notes: Intact, not treated with uPA; As 1.6.1M proBiTE but with a panitumumab anti-EGFR scFv in the light chain
binding result: binds

B2: 1.6.1M-2-1-Pa proBiTE (bispecific antibody)
heavy: QDGNEEMGGGSQDGNEEMGGIGGGSGGGGSGLSGRSDNHGGLSGRSDNHGGSEVQLVESGGGLVQPGGSLRLSCAASGFTFNTYAMNWVRQAPGKGLEWVARIRSKYNNYATYYADSVKGRFTISRDDSKNTLYLQMNSLRAEDTAVYYCARHGNFGSSYVSYFAYWGQGTTVTVSSASTKGPSVFPLAPSSKSTSGGTAALGCLVKDYFPEPVTVSWNSGALTSGVHTFPAVLQSSGLYSLSSVVTVPSSSLGTQTYICNVNHKPSNTKVDKKVEPKSCPPCPAPEAAGAPSVFLFPPKPKDTLMISRTPEVTCVVVDVSHEDPEVKFNWYVDGVEVHNAKTKPREEQYNSTYRVVSVLTVLHQDWLNGKEYKCKVSNKALPAPIEKTISKAKGQPREPQVYTLPPSRDELTKNQVSLLCLVKGFYPSDIAVEWESNGQPENNYKTTPPVLDSDGSFFLHSKLTVDKSRWQQGNVFSCSVMHEALHNHYTQKSLSLSPGK
light: QVQLQESGPGLVKPSETLSLTCTVSGGSVSSGDYYWTWIRQSPGKGLEWIGHIYYSGNTNYNPSLKSRLTISIDTSKTQFSLKLSSVTAADTAIYYCVRDRVTGAFDIWGQGTMVTVSSGGGGSGGGGSGGGGSGGGGSDIQMTQSPSSLSASVGDRVTITCQASQDISNYLNWYQQKPGKAPKLLIYDASNLETGVPSRFSGSGSGTDFTFTISSLQPEDIATYFCQHFDHLPLAFGGGTKVEIKGGGGSGGGGSGGGGSGGGGSEIVVTQSPATLSVSPGERATLSCRSSTGAVTTSNYANWVQQKPGQAPRGLIGGANKRAPGVPARFSGSLSGDEATLTISSLQSEDFAVYYCALWYSNLWVFGQGTKLEIKRTVAAPSVFIFPPSDEQLKSGTASVVCLLNNFYPREAKVQWKVDNALQSGNSQESVTEQDSKDSTYSLSSTLTLSKADYEKHKVYACEVTHQGLSSPVTKSFNRGECPPCPAPEAAGAPSVFLFPPKPKDTLMISRTPEVTCVVVDVSHEDPEVKFNWYVDGVEVHNAKTKPREEQYNSTYRVVSVLTVLHQDWLNGKEYKCKVSNKALPAPIEKTISKAKGQPREPQVYTLPPSRDELTKNQVSLLCLVKGFYPSDIAVEWESNGQPENNYKTTPPVLDSDGSFFLHSKLTVDKSRWQQGNVFSCSVMHEALHNHYTQKSLSLSPGK
notes: Intact, not treated with uPA
binding result: binds
